Experimental data from article PMC10302205, “Saccharomyces cerevisiae Δ9-desaturase Ole1 forms a supercomplex with Slc1 and Dga1” (The Journal of Biological Chemistry, 2023).

B1: NubG-Dga1 (full-length NubG-Dga1 fusion) [S. cerevisiae] / Ole1-Myc-Cub-LexA-VP16 [S. cerevisiae] (parent complex)
chain 1: MSGTFNDIRRRKKEEGSPTAGITERHENKSLSSIDKREQTLKPQLESCCPLATPFERRLQTLAVAWHTSSFVLFSIFTLFAISTPALWVLAIPYMIYFFFDRSPATGEVVNRYSLRFRSLPIWKWYCDYFPISLIKTVNLKPTFTLSKNKRVNEKNYKIRLWPTKYSINLKSNSTIDYRNQECTGPTYLFGYHPHGIGALGAFGAFATEGCNYSKIFPGIPISLMTLVTQFHIPLYRDYLLALGISSVSRKNALRTLSKNQSICIVVGGARESLLSSTNGTQLILNKRKGFIKLAIQTGNINLVPVFAFGEVDCYNVLSTKKDSVLGKMQLWFKENFGFTIPIFYARGLFNYDFGLLPFRAPINVVVGRPIYVEKKITNPPDDVVNHFHDLYIAELKRLYYENREKYGVPDAELKIVG
chain 2: MPTSGTTIELIDDQFPKDDSASSGIVDEVDLTEANILATGLNKKAPRIVNGFGSLMGSKEMVSVEFDKKGNEKKSNLDRLLEKDNQEKEEAKTKIHISEQPWTLNNWHQHLNWLNMVLVCGMPMIGWYFALSGKVPLHLNVFLFSVFYYAVGGVSITAGYHRLWSHRSYSAHWPLRLFYAIFGCASVEGSAKWWGHSHRIHHRYTDTLRDPYDARRGLWYSHMGWMLLKPNPKYKARADITDMTDDWTIRFQHRHYILLMLLTAFVIPTLICGYFFNDYMGGLIYAGFIRVFVIQQATFCINSLAHYIGTQPFDDRRTPRDNWITAIVTFGEGYHNFHHEFPTDYRNAIKWYQYDPTKVIIYLTSLVGLAYDLKKFSQNAIEEALIQQEQKKINKKKAKINWGPVLTDLPMWDKQTFLAKSKENKGLVIISGIVHDVSGYISEHPGGETLIKTALGKDATKAFSGGVYRHSNAAQNVLADMRVAVIKESKNSAIRMASKRGEIYETGKFF

Variants of: B1
Assay: integrated membrane yeast two-hybrid assay (β-galactosidase reporter); n = 3 biological replicates; parent: 1; read off a plot

Variant	ratio to parent
chain 1 R404A, chain 1 E405A, chain 1 K406A	~0.84
chain 1 K397A, chain 1 R398A, chain 1 D411A, chain 1 E413A, chain 1 K415A	~0.2
